{"source": "patent US20140343095A1", "about": "“Methods of Diagnosing and Treating Multiple Sclerosis” (The Brigham and Women's Hospital, Inc., priority 2009, published 2014)", "molecules": {"B1": {"name": "HSP60: TLR2 agonist HSP60 (protein, UniProt P10809 27-573, looked up)", "60 kDa heat shock protein, …": "AKDVKFGADARALMLQGVDLLADAVAVTMGPKGRTVIIEQSWGSPKVTKDGVTVAKSIDLKDKYKNIGAKLVQDVANNTNEEAGDGTTTATVLARSIAKEGFEKISKGANPVEIRRGVMLAVDAVIAELKKQSKPVTTPEEIAQVATISANGDKEIGNIISDAMKKVGRKGVITVKDGKTLNDELEIIEGMKFDRGYISPYFINTSKGQKCEFQDAYVLLSEKKISSIQSIVPALEIANAHRKPLVIIAEDVDGEALSTLVLNRLKVGLQVVAVKAPGFGDNRKNQLKDMAIATGGAVFGEEGLTLNLEDVQPHDLGKVGEVIVTKDDAMLLKGKGDKAQIEKRIQEIIEQLDVTTSEYEKEKLNERLAKLSDGVAVLKVGGTSDVEVNEKKDRVTDALNATRAAVEEGIVLGGGCALLRCIPALDSLTPANEDQKIGIEIIKRTLKIPAMTIAKNAGVEGSLIVEKIMQSSSEVGYDAMAGDFVNMVEKGIIDPTKVVRTALLDAAGVASLLTTAEVVVTEIPKEEKDPGMGAMGGMGGGMGGGMF"}}, "system": "PARP-1", "test": "FACS PARP-1 activity in innate and adaptive immune cells treated with HSP60 or 15-HC", "assay_type": "cell-based, human", "settings": "CD4+ T cells, CD8+ T cells, B cells of healthy controls; HSP60 1, 5, 10 ng/ml; 15-HC 1, 5, 10 ug/ml", "text": "FIGS. 17A-C are bar graphs showing that 15-HC, but not HSP60, activates PARP-1 in cells of the innate immune system. Mean PARP-1 activity as determined by FACS in classical monocytes (17A), inflammatory monocytes (17B) and dendritic cells (17C) of healthy controls (HC) treated with activated with HSP60, 15-HC or left untreated. The data are shown as mean fluorescence intensity (MFI)±SD of 5 samples/group.\nFIGS. 18A-C are bar graphs showing that both 15-HC and HSP60 activate PARP-1 in cells of the adaptive immune system. Mean PARP-1 activity as determined by FACS in CD4+ T cells (18A), CD8+ T cells (18B) and B cells (18C) of healthy controls (HC) treated with activated with HSP60, 15-HC or left untreated. The data are shown as mean fluorescence intensity (MFI)±SD of 5 samples/group.\nA new FACS-based method was developed to detect PARP-1 activation based on the intracellular detection of the PARP-1 product PAR with specific antibodies. Briefly, the cells were incubated with antibodies to CD16/32 to block unspecific antibody binding, and then stained for surface markers. […] The samples were then analyzed by FACS.\nTo investigate whether the increased activity of the TLR2/PARP-1 axis in SPMS patients resulted from increased levels of TLR2 ligands, the levels of 15-HC and HSP60 were measured in serum samples from healthy controls, RRMS and SPMS patients. […]"}
{"molecule": "B1", "values": [{"measurement": "PARP-1 activation in cells of the adaptive immune system (FIG. 18)", "value": "could activate"}]}
